The record followed here is patent US20240059799A1 (Pfizer, published 2024).

Test in all cases: SPR, Biacore 8K+, 37 C; antibody captured by anti-human Fc, cytokine injected
A general note: In SPR one partner is held on a chip, and binding of the other changes the refractive index at the surface.

In one test the target is T1, cynomolgus monkey IL-12 (cynomolgus monkey).
T1 construct: also called cyno IL-12
T1 chain 1: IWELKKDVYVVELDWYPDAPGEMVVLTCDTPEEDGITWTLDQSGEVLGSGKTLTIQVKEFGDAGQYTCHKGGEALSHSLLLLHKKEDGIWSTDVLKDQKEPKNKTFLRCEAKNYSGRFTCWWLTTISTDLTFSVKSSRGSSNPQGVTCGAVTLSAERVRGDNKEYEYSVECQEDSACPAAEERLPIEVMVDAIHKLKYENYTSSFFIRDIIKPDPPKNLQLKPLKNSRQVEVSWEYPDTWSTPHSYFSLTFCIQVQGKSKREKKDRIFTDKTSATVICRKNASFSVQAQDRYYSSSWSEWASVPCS
T1 chain 2: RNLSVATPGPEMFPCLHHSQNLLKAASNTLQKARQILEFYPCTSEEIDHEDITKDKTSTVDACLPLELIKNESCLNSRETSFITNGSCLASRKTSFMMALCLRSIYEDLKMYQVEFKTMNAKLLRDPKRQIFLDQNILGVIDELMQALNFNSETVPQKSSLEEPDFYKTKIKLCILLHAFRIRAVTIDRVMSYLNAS
The method, then:
(§1) In order to determine binding to TL1A, kinetic assays were conducted at 37° C. using a collection rate of 10 Hz on a Biacore™ T200 instrument (GE Healthcare). […] For the analysis of the p40 binding arm, kinetic assays were conducted at 37° C. using a collection rate of 10 Hz on a Biacore™ 8 K+ instrument (GE Healthcare).

In another test the target is T2, rabbit IL-12 (rabbit).
T2 chain 1: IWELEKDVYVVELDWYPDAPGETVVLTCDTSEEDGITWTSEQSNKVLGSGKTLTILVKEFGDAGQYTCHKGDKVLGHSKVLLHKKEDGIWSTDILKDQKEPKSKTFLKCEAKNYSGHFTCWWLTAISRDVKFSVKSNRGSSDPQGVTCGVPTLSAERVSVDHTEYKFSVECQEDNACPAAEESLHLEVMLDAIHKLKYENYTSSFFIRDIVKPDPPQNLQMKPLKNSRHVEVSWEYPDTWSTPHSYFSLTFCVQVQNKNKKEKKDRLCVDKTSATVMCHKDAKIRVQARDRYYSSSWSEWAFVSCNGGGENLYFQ
T2 chain 2: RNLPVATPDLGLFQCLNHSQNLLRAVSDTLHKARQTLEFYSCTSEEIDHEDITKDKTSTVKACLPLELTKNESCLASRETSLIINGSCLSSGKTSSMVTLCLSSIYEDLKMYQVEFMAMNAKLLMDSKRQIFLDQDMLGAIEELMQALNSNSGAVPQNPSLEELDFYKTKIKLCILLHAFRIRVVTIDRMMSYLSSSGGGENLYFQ
The method, then:
as §1

The target in a further test is T3, cynomolgus monkey IL-23 (cynomolgus monkey, limits assumed).
T3 construct: also called cyno IL-23
T3 chain 1: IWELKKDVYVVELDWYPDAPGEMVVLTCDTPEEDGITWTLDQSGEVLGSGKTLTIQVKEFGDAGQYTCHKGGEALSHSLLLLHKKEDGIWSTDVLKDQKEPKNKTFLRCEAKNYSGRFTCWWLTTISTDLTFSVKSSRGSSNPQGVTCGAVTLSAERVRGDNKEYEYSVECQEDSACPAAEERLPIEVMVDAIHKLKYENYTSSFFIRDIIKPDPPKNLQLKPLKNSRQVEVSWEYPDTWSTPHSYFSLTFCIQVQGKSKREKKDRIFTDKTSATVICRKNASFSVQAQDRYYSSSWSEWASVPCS
T3 chain 2: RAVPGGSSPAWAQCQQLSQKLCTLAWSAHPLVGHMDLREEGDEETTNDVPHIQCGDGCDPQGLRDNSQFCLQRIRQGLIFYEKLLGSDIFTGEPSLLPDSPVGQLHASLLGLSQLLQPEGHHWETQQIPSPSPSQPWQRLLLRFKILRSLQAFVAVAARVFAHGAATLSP
The method, then: as §1

The target of another test is T4, human IL-12 (human, UniProt P29460 23-328; P29459 23-219).
T4 construct: also called recombinant human IL-12 (p40/p35)
T4 sequence 1: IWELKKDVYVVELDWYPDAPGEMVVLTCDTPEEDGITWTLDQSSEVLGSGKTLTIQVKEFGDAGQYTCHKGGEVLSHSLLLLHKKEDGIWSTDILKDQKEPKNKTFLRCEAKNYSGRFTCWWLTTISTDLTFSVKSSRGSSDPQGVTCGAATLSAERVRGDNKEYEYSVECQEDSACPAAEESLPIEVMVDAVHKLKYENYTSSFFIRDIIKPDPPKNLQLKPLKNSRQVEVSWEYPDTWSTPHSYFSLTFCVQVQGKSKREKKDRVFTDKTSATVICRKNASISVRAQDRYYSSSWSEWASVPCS
T4 sequence 2: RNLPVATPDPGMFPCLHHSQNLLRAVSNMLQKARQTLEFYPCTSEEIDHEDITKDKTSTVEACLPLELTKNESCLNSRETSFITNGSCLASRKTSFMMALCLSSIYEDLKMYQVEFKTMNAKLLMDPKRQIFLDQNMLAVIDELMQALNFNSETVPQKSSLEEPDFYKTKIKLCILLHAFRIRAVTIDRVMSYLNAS
On the procedure:
as §1

The next test concerns the target T5, mouse IL-23 (mouse, UniProt P43432 23-335; Q9EQ14 22-196).
T5 sequence 1: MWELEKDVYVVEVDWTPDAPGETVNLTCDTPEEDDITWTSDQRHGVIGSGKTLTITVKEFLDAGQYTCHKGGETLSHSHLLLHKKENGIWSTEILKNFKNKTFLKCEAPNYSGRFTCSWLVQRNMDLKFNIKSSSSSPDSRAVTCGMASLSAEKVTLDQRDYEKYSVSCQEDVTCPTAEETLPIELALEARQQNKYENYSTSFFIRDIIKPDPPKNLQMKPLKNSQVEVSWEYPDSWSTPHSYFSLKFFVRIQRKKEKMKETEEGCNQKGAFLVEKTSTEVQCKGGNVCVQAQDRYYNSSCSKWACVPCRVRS
T5 sequence 2: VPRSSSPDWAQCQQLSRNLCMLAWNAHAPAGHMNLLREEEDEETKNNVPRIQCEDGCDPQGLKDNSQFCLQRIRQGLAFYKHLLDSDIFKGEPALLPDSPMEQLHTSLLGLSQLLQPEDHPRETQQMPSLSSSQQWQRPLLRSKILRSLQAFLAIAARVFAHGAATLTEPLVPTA
The method, then: as §1

The next test has as its target T6, human IL-23 (human, UniProt P29460 23-328; Q9NPF7 20-189).
T6 construct: also called recombinant human IL-23 (p40/p19)
T6 sequence 1: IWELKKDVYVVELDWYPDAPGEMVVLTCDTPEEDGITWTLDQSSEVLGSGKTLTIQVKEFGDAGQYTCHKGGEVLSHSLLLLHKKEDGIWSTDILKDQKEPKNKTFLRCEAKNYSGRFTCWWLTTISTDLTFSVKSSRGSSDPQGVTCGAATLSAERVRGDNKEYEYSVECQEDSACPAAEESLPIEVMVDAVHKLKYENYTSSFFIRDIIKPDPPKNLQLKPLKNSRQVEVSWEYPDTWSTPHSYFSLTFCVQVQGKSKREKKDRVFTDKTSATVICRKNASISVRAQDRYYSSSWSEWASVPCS
T6 sequence 2: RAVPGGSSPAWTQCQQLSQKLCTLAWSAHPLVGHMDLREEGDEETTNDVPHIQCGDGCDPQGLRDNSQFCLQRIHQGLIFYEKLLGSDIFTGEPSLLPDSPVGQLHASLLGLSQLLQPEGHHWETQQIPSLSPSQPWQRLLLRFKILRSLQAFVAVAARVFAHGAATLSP
On the procedure: as §1

What is called Kd is the concentration at which binding is half-saturated. As a reminder, the koff is the rate constant with which the complex falls apart. Usually kon stands for a measure of how fast the partners come together.

B1: p40TL1A-0033 bispecific antibody (bispecific antibody, human IgG1, kappa)
heavy: EVQLVQSGAEVKKPGESLKISCKGSGYSFTTYWLGWVRQMPGKGLDWIGIMSPVDSDIRYSPSFQGQVTMSVDKSITTAYLQWNSLKASDTAMYYCARRRPGQGYFDFWGQGTLVTVSSASTKGPSVFPLAPSSKSTSGGTAALGCLVKDYFPEPVTVSWNSGALTSGVHTFPAVLQSSGLYSLSSVVTVPSSSLGTQTYICNVNHKPSNTKVDKKVEPKSCDKTHTCPPCPAPEAAGAPSVFLFPPKPKDTLMISRTPEVTCVVVDVSHEDPEVKFNWYVDGVEVHNAKTKPREEQYNSTYRVVSVLTVLHQDWLNGKEYKCKVSNKALPAPIEKTISKAKGQPREPQVCTLPPSREEMTKNQVSLWCLVKGFYPSDIAVEWESNGQPENNYKTTPPVLDSDGSFFLYSKLTVDKSRWQQGNVFSCSVLHEALHSHYTQKSLSLSPGK
light: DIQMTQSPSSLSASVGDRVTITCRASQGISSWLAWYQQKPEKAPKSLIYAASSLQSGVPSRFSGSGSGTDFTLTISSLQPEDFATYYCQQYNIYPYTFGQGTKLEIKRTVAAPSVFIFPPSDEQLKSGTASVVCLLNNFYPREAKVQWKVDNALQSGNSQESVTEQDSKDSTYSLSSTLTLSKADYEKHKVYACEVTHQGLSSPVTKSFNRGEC
chain 1: not shown
chain 2: QVQLVQSGAEVKKPGASVKVSCKASGYDYTYYGISWVRQAPGQGLEWMGWISTYNTGTHYAPSLQGRVTMTTDTSTSTAYMELRSLRSDDTAVYYCARESYYGSGAFRGGMDVWGQGTTVTVSSASTKGPSVFPLAPSSKSTSGGTAALGCLVKDYFPEPVTVSWNSGALTSGVHTFPAVLQSSGLYSLSSVVTVPSSSLGTQTYICNVNHKPSNTKVDKKVEPKSC
notes: Single cell KiH, modified Fd format; IgG1 effector-function-minimized Fc with LS mutations
For the molecule B1, the Kd with cynomolgus monkey IL-12 came to 0.267 nM; with cynomolgus monkey IL-23, 0.281 nM; with human IL-12 it was 0.123 nM; with human IL-23 it was 0.104 nM. Also, the koff is 0.000636 s⁻¹ with cynomolgus monkey IL-12, 0.000542 s⁻¹ in the test with cynomolgus monkey IL-23, 0.000258 s⁻¹ with human IL-12 and 0.000294 s⁻¹ in the test with human IL-23. Also, the kon was determined as 2.38e+06 M⁻¹ s⁻¹ in the test with cynomolgus monkey IL-12, 1.93e+06 M⁻¹ s⁻¹ with cynomolgus monkey IL-23, 2.1e+06 M⁻¹ s⁻¹ with human IL-12 and 2.82e+06 M⁻¹ s⁻¹ with human IL-23. In addition, the binding result with rabbit IL-12 and with mouse IL-23 was “no binding (tested: 200 nM)” throughout.
